Paper PMC6948969, “Regulation of gene expression by the action of a fungal lncRNA on a transactivator”

T1: Xyr1 (Xylanase regulator 1) (Trichoderma reesei, UniProt G0RLE8 1-920)
T1 sequence: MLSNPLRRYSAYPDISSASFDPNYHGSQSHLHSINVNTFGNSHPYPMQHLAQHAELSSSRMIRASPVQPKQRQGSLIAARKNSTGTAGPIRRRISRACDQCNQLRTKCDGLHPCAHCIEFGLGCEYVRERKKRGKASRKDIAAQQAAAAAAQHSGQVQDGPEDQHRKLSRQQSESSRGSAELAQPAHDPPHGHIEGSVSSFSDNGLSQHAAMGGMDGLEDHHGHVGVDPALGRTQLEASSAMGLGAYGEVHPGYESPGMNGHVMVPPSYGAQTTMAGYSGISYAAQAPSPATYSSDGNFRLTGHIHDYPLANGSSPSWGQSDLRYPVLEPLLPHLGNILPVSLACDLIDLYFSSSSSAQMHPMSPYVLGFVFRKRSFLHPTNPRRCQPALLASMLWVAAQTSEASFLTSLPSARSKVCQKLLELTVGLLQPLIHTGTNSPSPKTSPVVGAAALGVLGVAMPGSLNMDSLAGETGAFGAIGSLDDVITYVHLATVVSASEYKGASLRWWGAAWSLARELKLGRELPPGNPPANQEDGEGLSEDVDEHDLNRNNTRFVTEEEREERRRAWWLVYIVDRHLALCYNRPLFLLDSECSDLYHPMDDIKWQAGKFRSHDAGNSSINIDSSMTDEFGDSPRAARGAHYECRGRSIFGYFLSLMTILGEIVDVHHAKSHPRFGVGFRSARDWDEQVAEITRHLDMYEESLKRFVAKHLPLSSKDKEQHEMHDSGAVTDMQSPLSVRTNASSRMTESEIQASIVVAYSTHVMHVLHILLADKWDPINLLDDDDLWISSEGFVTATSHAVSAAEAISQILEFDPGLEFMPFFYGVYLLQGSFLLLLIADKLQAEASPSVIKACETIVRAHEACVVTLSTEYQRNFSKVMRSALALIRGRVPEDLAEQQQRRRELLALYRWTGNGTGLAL

B1: XRE probe (xyr1 promoter) (dsDNA)
DNA 1: CACTGGATACCTACCTAGGTAGTCTGCAGCAGAAG
DNA 2: CTTCTGCTGCAGACTACCTAGGTAGGTATCCAGTG
B2: XBS probe (xyn1 promoter) (dsDNA)
DNA 1: TTGGCAGGCTAAATGCGACATCTTAGCCGGATGCA
DNA 2: TGCATCCGGCTAAGATGTCGCATTTAGCCTGCCAA

Experiments:
[1] = target: T1, Xyr1 (Xylanase regulator 1); assay: circular dichroism; 1.8 or 3.6 uM DNA, 0.5 uM Xyr1; larger loss of ellipticity at 222 nm than XBS; EMSA/RNA-EMSA: 10 mM Tricine, 50 mM NaCl, pH 7.4, 22 C, 10 min; gel 0.5x TBE, 4 C. CD: 50 mM Tris, 200 mM NaCl, 50 mM NaH2PO4, 10% glycerol, pH 7.5, 22 C; conditions: protein: recombinant; chain copies: 2; blunt
[2] = target: T1, Xyr1 (Xylanase regulator 1); assay: circular dichroism; 1.8 or 3.6 uM DNA, 0.5 uM Xyr1; EMSA/RNA-EMSA: 10 mM Tricine, 50 mM NaCl, pH 7.4, 22 C, 10 min; gel 0.5x TBE, 4 C. CD: 50 mM Tris, 200 mM NaCl, 50 mM NaH2PO4, 10% glycerol, pH 7.5, 22 C; conditions: protein: recombinant; chain copies: 2; blunt

| Binder | binding result [1] | binding result [2] |
| --- | --- | --- |
| B1 | binds | – |
| B2 | – | binds |
